This test deals with G6B-b dual phosphopeptide pY211/pY237 (Homo sapiens), O95866. Nature of the test: SPR.

Here are results for one molecule from publication PMC3501490, “An Investigation of Hierachical Protein Recruitment to the Inhibitory Platelet Receptor, G6B-b” (PLoS ONE, 2012).

G6B-b dual phosphopeptide pY211/pY237 (Homo sapiens), O95866, sequence (O95866 206-241): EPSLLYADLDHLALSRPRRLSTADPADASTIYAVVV

B1: SHP-2 tandem SH2, Q06124 (protein)
chain: WFHPNITGVEAENLLLTRGVDGSFLARPSKSNPGDFTLSVRRNGAVTHIKIQNTGDYYDLYGGEKFATLAELVQYYMEHHGQLKEKNGDVIELKYPLNCADPTSERWFHGHLSGKEAEKLLTEKGKHGSFLVRESQSHPGDFVLSVRTGDDKGESNDGKSKVTHVMIRCQELKYDVGGGERFDSLTDLVEHYKKNPMVETLGTVLQLKQPL
Molecule B1 had a Kd of 480 pM.
